This is an account of results in paper PMC8224366.

For test [1], the target named is EPN-p6 (enveloped protein nanocage monomer with the p6 domain; prokaryotic construct pET-EPN-His-p6) (HIV).
Test [2] deals with EPN-Fos-C (EPN monomer with the Fos domain at the C-end; prokaryotic construct pET-EPN-Fos-C) (HIV | not stated).
The target of test [3] is EPN-Fos-M (EPN monomer with the Fos domain between the Interaction domain and the Late budding domain; prokaryotic construct pET-EPN-Fos-M) (not stated | HIV).

Turning to “NanoLuc-Vpr (NanoLuc luciferase fused with HIV viral protein R) (from UniProt P69726 1-96)”, the NanoLuc, molecules in a single nanocage, in EV p6 (estimated from luciferase assay and the EPN/NanoLuc molar ratio by MS/MS) (molecules in a single nanocage) in test [1] is 1.5.

Consider “NanoLuc-Jun (NanoLuc luciferase fused with the Jun leucine zipper domain)”, for which, in test [2], the NanoLuc, molecules in a single nanocage, in EV C (estimated from luciferase assay and the EPN/NanoLuc molar ratio by MS/MS) (molecules in a single nanocage) was 15; the NanoLuc, molecules in a single nanocage, in EV C(lenti) (estimated from luciferase assay and the EPN/NanoLuc molar ratio by MS/MS) (molecules in a single nanocage) is 40. Besides, the NanoLuc, molecules in a single nanocage, in EV M (estimated from luciferase assay and the EPN/NanoLuc molar ratio by MS/MS) (molecules in a single nanocage) in test [3] is 21.
